What is called Kd is a measure of binding affinity in units of concentration.

The target of assay [1] is T1, mouse Galectin-3 (mouse, UniProt P16110 2-264, limits assumed).
T1 construct: also called mLGALS3; mouse LGALS3
Description: ELISA screening (Table 1, antigen target).

Assay [2] addresses T2, human Galectin-3 (human, UniProt P17931 1-250).
T2 construct: In the laminin assay it was biotin-labelled; also called LGALS3; Gal3
Briefly: SPR, antibody captured on anti-mouse Fc surface, 8-pt 2-fold dilution series of LGALS3 from 500 nM. As for the experimental part:
SPR: Antibody binding to LGALS3 was confirmed by surface plasmon resonance (SPR) assay. The antibody was captured on an anti-mouse Fc surface and an 8-pt. 2-fold dilution series of LGALS3 was flown over the antibody starting at 500 nM.
Background: Surface plasmon resonance follows binding to a sensor surface in real time, without labels.

T1 sequence (P16110 2-264 limits assumed): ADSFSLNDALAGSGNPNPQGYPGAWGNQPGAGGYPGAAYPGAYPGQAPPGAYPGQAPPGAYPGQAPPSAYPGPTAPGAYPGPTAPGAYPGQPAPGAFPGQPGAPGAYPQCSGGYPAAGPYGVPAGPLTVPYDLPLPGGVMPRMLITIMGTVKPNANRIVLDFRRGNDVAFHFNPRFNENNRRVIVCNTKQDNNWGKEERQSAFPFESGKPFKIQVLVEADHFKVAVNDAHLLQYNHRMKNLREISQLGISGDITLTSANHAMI
T2 sequence (P17931 whole entry): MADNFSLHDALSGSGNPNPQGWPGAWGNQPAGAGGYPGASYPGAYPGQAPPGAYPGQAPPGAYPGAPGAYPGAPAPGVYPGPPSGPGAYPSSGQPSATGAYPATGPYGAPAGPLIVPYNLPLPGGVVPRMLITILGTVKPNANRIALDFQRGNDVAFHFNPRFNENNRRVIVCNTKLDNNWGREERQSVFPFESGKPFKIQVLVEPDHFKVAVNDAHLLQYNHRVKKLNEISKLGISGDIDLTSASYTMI

B1: 112516.14D11.2D2 (antibody, V domains shown)
VH: QVQLKESGPGLVAPSQSLSITCTISGFSLSSYGVHWVRQPPGKGLEWLVVIWSDGSTTYNSTLKSRLSISKDNSKSQVFLKMNSLQTDDTAMYYCARHISNYGTMDYWGQGTSVTVS
VL: DIQMTQTTSSLSASLGDRVTISCRASQDIRNYLNWYQQKPDGSIKLLIYYTSRLHSGVPSRFSGSGSGTDYSLTIRNLEQEDIATYFCQHFNTLPPTFGGGTKLEIK
B1: the binding result in assay [1] was “binds”. In assay [2], this molecule returned a Kd of 14.6 nM.

Source of the values: patent publication US20210032350A1 (Memorial Sloan Kettering, published 2021).
